One block for each molecule: values may come before it.
Columns and labels:
[1] = target: PCIF1 (endogenous, MIN6) (UniProt Q6ZWS8); test: Duolink proximity ligation assay; conditions: reference: DMSO, sites T231,S232
[2] = target: PCIF1 (human; SPOP) (UniProt O43791); test: GST pull-down, 35S autoradiography; conditions: sites T231,S232
[3] = target: T1, GST-PDX-1 T231D/S232E (CK2-phosphomimicking mutant) (mouse, UniProt P52946 1-284, T231D | S232E); test: pull-down; 10 ug purified GST-tagged PDX-1 immobilised on GSH-sepharose in PBS-T (PBS pH 7.4, 1% Tween 20), incubated 2 h at 4 °C with 7.5 uL in vitro translated [35S]-methionine labeled PCIF1; SDS-PAGE, Coomassie and autoradiography; conditions: one partner purified
T1 construct: 'Full-length mouse PDX-1' is said of the FLAG construct; also called D/E mutant; source: bacterial expression vector pGEX-4T-1, purified
T1 sequence (P52946 whole entry T231D/S232E): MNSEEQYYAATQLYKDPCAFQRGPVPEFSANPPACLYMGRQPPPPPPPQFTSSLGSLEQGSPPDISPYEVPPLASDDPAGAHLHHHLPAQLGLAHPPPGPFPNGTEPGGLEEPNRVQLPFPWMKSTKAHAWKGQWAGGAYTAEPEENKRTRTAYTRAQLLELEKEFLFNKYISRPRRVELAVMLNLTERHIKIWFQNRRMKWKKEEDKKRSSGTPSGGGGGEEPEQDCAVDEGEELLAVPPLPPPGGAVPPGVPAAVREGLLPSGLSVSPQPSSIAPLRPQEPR

Molecule: PDX-1 (from UniProt P52946) 10 µM CX-4945, 25 mM glucose
percent of reference ([1]; 25 mM glucose): weaker; reference 100

B1: PCIF1 (human), in vitro translated and [35S]-methionine labeled, from pET28a-PCIF-1 (natural protein, UniProt O43791 1-374, looked up)
chain: MSRVPSPPPPAEMSSGPVAESWCYTQIKVVKFSYMWTINNFSFCREEMGEVIKSSTFSSGANDKLKWCLRVNPKGLDEESKDYLSLYLLLVSCPKSEVRAKFKFSILNAKGEETKAMESQRAYRFVQGKDWGFKKFIRRDFLLDEANGLLPDDKLTLFCEVSVVQDSVNISGQNTMNMVKVPECRLADELGGLWENSRFTDCCLCVAGQEFQAHKAILAARSPVFSAMFEHEMEESKKNRVEINDVEPEVFKEMMCFIYTGKAPNLDKMADDLLAAADKYALERLKVMCEDALCSNLSVENAAEILILADLHSADQLKTQAVDFINYHASDVLETSGWKSMVVSHPHLVAEAYRSLASAQCPFLGPPRKRLKQS
modifications: [35S]-methionine labeled
notes: PCIF1 / SPOP, human cDNA cloned into the BamH1/Xho1 sites of pET28a; wild-type form; The tags are inferred from the vector and cloning sites; also called SPOP; source: in vitro translated (Promega) from pET28a-PCIF-1
fold binding against wild-type or the AA mutant [3]: 1.5 fold

Now from value to molecule:

percent of reference ([1]; 5 mM glucose): weaker; reference 100
Molecule: PDX-1 (from UniProt P52946) 10 µM CX-4945, 5 mM glucose

fold change ([2]; reference: GST-PDX-1 T231A/S232A): 1.5
fold change ([2]; reference: GST-PDX-1 wild type): 1.5
Molecule: PDX-1 (from UniProt P52946) GST-PDX-1 T231D/S232E

Reference: publication PMC5374406, “The Phosphorylation of PDX-1 by Protein Kinase CK2 Is Crucial for Its Stability” (Pharmaceuticals, 2016)
